Source: the supplement of paper PMC10724198
± gives the standard deviation of the averaged measurements.
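Further: PSI is a weighted mean of sequencing reads over stability bins, variants kept only with over 10 reads, mCherry proximal and sfGFP distal, peptide attached via GGGS linker.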

The sequences below were run on Saccharomyces cerevisiae (assay: protein stability index of tFT-peptide fusion (C-terminal peptide) (PSI (0-1 scale)); higher = more stable (slower turnover)). Conditions: genetic background: wild type; temperature: 30 C.
Experimental: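 MPS profiling in S. cerevisiae of the tFT-X12 degron library: putative degron peptides plus stable controls, 12 aa, fused to the C-terminus of a sfGFP-mCherry timer. Cells are FACS-sorted into 8 mCherry/sfGFP bins and deep-sequenced. PSI runs from 0 (unstable) to 1 (stable). Backgrounds are wild type, das1Δ and doa10Δ at 30 °C, and wild type, das1Δ, cdc34-1 and cdc53-1 at 37 °C; 2-3 technical replicates each.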
Sequence CTLVFLFFDLCS has a protein stability index of 0.304 ± 0.018. With CVCVVVCWRCGF the protein stability index was 0.327 ± 0.034. For CVIVCVLVWGRA, the protein stability index was 0.172 ± 0.026. In the case of CVMWFLLSAYYL, the protein stability index is reported as 0.267 ± 0.042. CVPAPCGRASCR showed a protein stability index of 0.658 ± 0.018. For CYSLLFVSVILF, the protein stability index was 0.138 ± 0.021. CYVFLCGSFVFV showed a protein stability index of 0.351 ± 0.023. DFLSGRCIFFYV was tested, and the protein stability index was 0.277 ± 0.029. With DFRGVSVIRHQV the protein stability index was 0.147 ± 0.018. With DRTRLFLLLIIA the protein stability index was 0.165 ± 0.016. In the case of DTHSRARAVLIA, the protein stability index is reported as 0.301 ± 0.019. DYARAWRTEVVC showed a protein stability index of 0.332 ± 0.017. In the case of EFEIALTLIRSI, the protein stability index is reported as 0.361 ± 0.055. In the case of EFFILYFFLKVL, the protein stability index is reported as 0.116 ± 0.023. With EFVACFRLLVHG the protein stability index was 0.269 ± 0.027. EGLCCGAYFLVF showed a protein stability index of 0.587 ± 0.035. Work on EGLDVRILIQVI yielded a protein stability index of 0.164 ± 0.025. EKTKRGLIQRVV showed a protein stability index of 0.293 ± 0.046. With ESRRGILFIYIN the protein stability index was 0.0867 ± 0.0055. ETCFSFVCSVQC gave a protein stability index of 0.281 ± 0.02. EVFLARKRSMVV showed a protein stability index of 0.214 ± 0.015. Sequence EWVWVVFSCVSW has a protein stability index of 0.32 ± 0.012. Sequence FAIRMHCLIFRC has a protein stability index of 0.124 ± 0.02. FCSVFAHFLLCH showed a protein stability index of 0.207 ± 0.013. FFCCVLFSIVVY was tested, and the protein stability index was 0.104 ± 0.028. FFFSFSFPFLSF gave a protein stability index of 0.477 ± 0.018. For FFFSLFFVLFFA, the protein stability index was 0.2 ± 0.022. FFGRWWWSFLLA showed a protein stability index of 0.261 ± 0.033. For FFLDVMFLLFFF, the protein stability index was 0.399 ± 0.021. Sequence FFLLFCASFLRC has a protein stability index of 0.294 ± 0.029. Work on FFLSFICVMLCG yielded a protein stability index of 0.158 ± 0.011. In the case of FFSGSVFMAVSL, the protein stability index is reported as 0.433 ± 0.02. Sequence FFVWGVFLGVSW has a protein stability index of 0.25 ± 0.026. In the case of FGEDFCHLLWCC, the protein stability index is reported as 0.374 ± 0.027. With FGFSFLHLFIFF the protein stability index was 0.313 ± 0.038. FGGICFAVLLCR showed a protein stability index of 0.244 ± 0.0097. FHICTQLIFITC gave a protein stability index of 0.127 ± 0.0084. FILCGFSVVLIG gave a protein stability index of 0.184 ± 0.048. FILLIFLSLLSP was tested, and the protein stability index was 0.281 ± 0.043. Sequence FIPPRTYCLMIG has a protein stability index of 0.233 ± 0.026. Work on FIRLFLVSFFIS yielded a protein stability index of 0.189 ± 0.022. With FLACYSSFLFVS the protein stability index was 0.0895 ± 0.022. FLCFFGGCFFLV showed a protein stability index of 0.401 ± 0.025. With FLCLLFYLSFFS the protein stability index was 0.391 ± 0.021. Sequence FLFWVLLVGCSF has a protein stability index of 0.206 ± 0.021. FLGVFFYFLLCV showed a protein stability index of 0.239 ± 0.013. For FLLAIVRGVWLA, the protein stability index was 0.104 ± 0.032. With FLPHLMCVFSFC the protein stability index was 0.334 ± 0.016. FLVFRPPALFLR showed a protein stability index of 0.22 ± 0.017. For FLVVCGLLSWVW, the protein stability index was 0.28 ± 0.032. FLVVSSVGFPLL was tested, and the protein stability index was 0.628 ± 0.014. FLWLCLLSLFFR was tested, and the protein stability index was 0.434 ± 0.0099. FLYFLLQFLCSG gave a protein stability index of 0.421 ± 0.029. In the case of FMCFVLPVFVLV, the protein stability index is reported as 0.212 ± 0.017. FNFFFSSVFLLV showed a protein stability index of 0.19 ± 0.02. FPFFFLSILSAV gave a protein stability index of 0.122 ± 0.023. FPFVYRSVLLFF gave a protein stability index of 0.0991 ± 0.021. Work on FPPRLIPLLARS yielded a protein stability index of 0.291 ± 0.025. In the case of FPSCYIWEVEVM, the protein stability index is reported as 0.333 ± 0.023. FPSLLFALFLFI was tested, and the protein stability index was 0.415 ± 0.036.

Same assay, conditions: genetic background: wild type; temperature: 37 C
In the case of CTLVFLFFDLCS, the protein stability index is reported as 0.4904 ± 0.0021. For CVCVVVCWRCGF, the protein stability index was 0.4555 ± 0.0043. In the case of CVIVCVLVWGRA, the protein stability index is reported as 0.326 ± 0.013. CVMWFLLSAYYL showed a protein stability index of 0.457 ± 0.042. CVPAPCGRASCR showed a protein stability index of 0.706 ± 0.022. For CYSLLFVSVILF, the protein stability index was 0.248 ± 0.0038. Sequence CYVFLCGSFVFV has a protein stability index of 0.515 ± 0.012. DFLSGRCIFFYV was tested, and the protein stability index was 0.512 ± 0.011. Sequence DFRGVSVIRHQV has a protein stability index of 0.308 ± 0.052. Work on DRTRLFLLLIIA yielded a protein stability index of 0.273 ± 0.019. In the case of DTHSRARAVLIA, the protein stability index is reported as 0.509 ± 0.04. DYARAWRTEVVC gave a protein stability index of 0.5088 ± 0.0024. With EFEIALTLIRSI the protein stability index was 0.572 ± 0.031. With EFFILYFFLKVL the protein stability index was 0.179 ± 0.0019. EFVACFRLLVHG gave a protein stability index of 0.4091 ± 0.0033. EGLCCGAYFLVF was tested, and the protein stability index was 0.6751 ± 0.0057. With EGLDVRILIQVI the protein stability index was 0.154 ± 0.019. EKTKRGLIQRVV gave a protein stability index of 0.554 ± 0.025. ESRRGILFIYIN gave a protein stability index of 0.0749 ± 0.024. ETCFSFVCSVQC showed a protein stability index of 0.385 ± 0.0093. With EVFLARKRSMVV the protein stability index was 0.418 ± 0.0088. EWVWVVFSCVSW gave a protein stability index of 0.432 ± 0.024. FAIRMHCLIFRC showed a protein stability index of 0.185 ± 0.0043. FCSVFAHFLLCH showed a protein stability index of 0.271 ± 0.0043. FFCCVLFSIVVY showed a protein stability index of 0.114 ± 0.024. Sequence FFFSFSFPFLSF has a protein stability index of 0.555 ± 0.031. Sequence FFFSLFFVLFFA has a protein stability index of 0.314 ± 0.013. Sequence FFGRWWWSFLLA has a protein stability index of 0.443 ± 0.026. FFLDVMFLLFFF gave a protein stability index of 0.513 ± 0.0088. Work on FFLLFCASFLRC yielded a protein stability index of 0.354 ± 0.0037. Work on FFLSFICVMLCG yielded a protein stability index of 0.2575 ± 0.0025. FFSGSVFMAVSL gave a protein stability index of 0.37901 ± 0.00016. In the case of FFVWGVFLGVSW, the protein stability index is reported as 0.362 ± 0.0063. Sequence FGEDFCHLLWCC has a protein stability index of 0.542 ± 0.018. Sequence FGFSFLHLFIFF has a protein stability index of 0.457 ± 0.013. FGGICFAVLLCR was tested, and the protein stability index was 0.357 ± 0.021. FHICTQLIFITC was tested, and the protein stability index was 0.145 ± 0.0024. FILCGFSVVLIG gave a protein stability index of 0.372 ± 0.014. For FILLIFLSLLSP, the protein stability index was 0.427 ± 0.016. Sequence FIPPRTYCLMIG has a protein stability index of 0.297 ± 0.015. FIRLFLVSFFIS gave a protein stability index of 0.298 ± 0.0093. With FLACYSSFLFVS the protein stability index was 0.136 ± 0.0035. FLCFFGGCFFLV gave a protein stability index of 0.5617 ± 0.0015. With FLCLLFYLSFFS the protein stability index was 0.5482 ± 0.0007. FLFWVLLVGCSF showed a protein stability index of 0.334 ± 0.013. For FLGVFFYFLLCV, the protein stability index was 0.326 ± 0.0064. In the case of FLLAIVRGVWLA, the protein stability index is reported as 0.112 ± 0.0028. FLPHLMCVFSFC was tested, and the protein stability index was 0.465 ± 0.0064. Work on FLVFRPPALFLR yielded a protein stability index of 0.219 ± 0.0054. FLVVCGLLSWVW showed a protein stability index of 0.4291 ± 0.003. With FLVVSSVGFPLL the protein stability index was 0.714 ± 0.014. FLWLCLLSLFFR showed a protein stability index of 0.498 ± 0.031. In the case of FLYFLLQFLCSG, the protein stability index is reported as 0.579 ± 0.034. With FMCFVLPVFVLV the protein stability index was 0.344 ± 0.014. Work on FNFFFSSVFLLV yielded a protein stability index of 0.334 ± 0.029. FPFFFLSILSAV showed a protein stability index of 0.168 ± 0.0078. For FPFVYRSVLLFF, the protein stability index was 0.216 ± 0.029. With FPPRLIPLLARS the protein stability index was 0.4713 ± 0.0013. FPSCYIWEVEVM gave a protein stability index of 0.436 ± 0.0047. With FPSLLFALFLFI the protein stability index was 0.501 ± 0.018.
